Results on one substance are retold here after US20200317802A1.

Experiment [1] deals with activated human MMP-14 (human) (UniProt P50281).
Experiment [2] has as its target activated human MMP-1 (human) (UniProt P03956).

activated human MMP-1 (human), sequence (P03956 100-469 limits assumed): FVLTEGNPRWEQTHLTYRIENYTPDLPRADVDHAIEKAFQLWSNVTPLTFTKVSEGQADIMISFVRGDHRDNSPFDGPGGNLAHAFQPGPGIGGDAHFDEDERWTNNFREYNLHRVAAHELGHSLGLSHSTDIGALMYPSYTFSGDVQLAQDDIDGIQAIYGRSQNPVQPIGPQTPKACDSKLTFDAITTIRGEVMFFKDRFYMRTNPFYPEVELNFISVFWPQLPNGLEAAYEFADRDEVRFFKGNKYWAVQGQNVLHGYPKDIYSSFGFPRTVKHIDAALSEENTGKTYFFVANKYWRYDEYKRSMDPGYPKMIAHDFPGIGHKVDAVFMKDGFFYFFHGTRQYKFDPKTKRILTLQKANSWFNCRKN

In turn, TIMP2 (from UniProt P16035 27-220) showed an IC50 (read off the curve) (human MMP-14 activity, FRET peptide substrate) in experiment [1] of 6 nM. In experiment [2], this substance displayed an IC50 (read off the curve) (human MMP-1 activity, FRET peptide substrate) of 0.9 nM.
